Here are results for two substances from patent US20160213771A1.

For this test, the target named is CXC chemokine receptor 2 (CXCR2) (UniProt P25025). Nature of the test: cell-based or functional assay.
Sequence of UniProt P25025 (P25025 whole entry): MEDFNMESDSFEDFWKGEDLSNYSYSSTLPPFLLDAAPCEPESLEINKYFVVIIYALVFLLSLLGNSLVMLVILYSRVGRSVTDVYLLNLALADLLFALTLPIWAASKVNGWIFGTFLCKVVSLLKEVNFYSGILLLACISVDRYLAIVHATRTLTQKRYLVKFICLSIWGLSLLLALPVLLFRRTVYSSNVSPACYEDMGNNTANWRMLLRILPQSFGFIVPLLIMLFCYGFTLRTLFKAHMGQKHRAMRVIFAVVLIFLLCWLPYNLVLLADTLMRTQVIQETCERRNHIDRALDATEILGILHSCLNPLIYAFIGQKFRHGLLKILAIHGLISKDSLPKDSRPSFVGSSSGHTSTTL

On to “IL-8 (from UniProt P10145 28-99) (ligand)”, for which the chemotactic response in Transwell migration assays was greater than 500%.
With UL146 (ligand) the figure was greater than 500%.
